The text below walks through data of patent publication US20220162328A1 (SHANDONG BOAN BIOTECHNOLOGY, published 2022).

The labels stand for the following.
T1: IL4R-Fc-biotin (UniProt P24394 26-232, biotinylated (sites not given))
T1 construct: also called IL4R-Fc protein (Sinobiological Co., Ltd., 10402-H02H); not shown: Fc part
T1 sequence (looked up): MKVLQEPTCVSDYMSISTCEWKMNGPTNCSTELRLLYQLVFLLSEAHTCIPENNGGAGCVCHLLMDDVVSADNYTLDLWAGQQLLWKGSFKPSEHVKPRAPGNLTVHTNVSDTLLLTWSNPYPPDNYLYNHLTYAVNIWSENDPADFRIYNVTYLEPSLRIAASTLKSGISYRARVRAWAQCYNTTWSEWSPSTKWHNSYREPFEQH

T2: human IL4R (10402-H08H, Sinobiological Co., Ltd.) (human, UniProt P24394 26-232)
T2 construct: Bought protein, coated on ELISA plates; also called IL4R-His protein; IL4R protein; not shown: His tag
T2 sequence (looked up): T1 sequence (looked up)

T3: receptors of IL4/IL13 on TF-1 cells and PBMC (IL4 receptor) (human, UniProt P24394 26-825)
T3 sequence (looked up): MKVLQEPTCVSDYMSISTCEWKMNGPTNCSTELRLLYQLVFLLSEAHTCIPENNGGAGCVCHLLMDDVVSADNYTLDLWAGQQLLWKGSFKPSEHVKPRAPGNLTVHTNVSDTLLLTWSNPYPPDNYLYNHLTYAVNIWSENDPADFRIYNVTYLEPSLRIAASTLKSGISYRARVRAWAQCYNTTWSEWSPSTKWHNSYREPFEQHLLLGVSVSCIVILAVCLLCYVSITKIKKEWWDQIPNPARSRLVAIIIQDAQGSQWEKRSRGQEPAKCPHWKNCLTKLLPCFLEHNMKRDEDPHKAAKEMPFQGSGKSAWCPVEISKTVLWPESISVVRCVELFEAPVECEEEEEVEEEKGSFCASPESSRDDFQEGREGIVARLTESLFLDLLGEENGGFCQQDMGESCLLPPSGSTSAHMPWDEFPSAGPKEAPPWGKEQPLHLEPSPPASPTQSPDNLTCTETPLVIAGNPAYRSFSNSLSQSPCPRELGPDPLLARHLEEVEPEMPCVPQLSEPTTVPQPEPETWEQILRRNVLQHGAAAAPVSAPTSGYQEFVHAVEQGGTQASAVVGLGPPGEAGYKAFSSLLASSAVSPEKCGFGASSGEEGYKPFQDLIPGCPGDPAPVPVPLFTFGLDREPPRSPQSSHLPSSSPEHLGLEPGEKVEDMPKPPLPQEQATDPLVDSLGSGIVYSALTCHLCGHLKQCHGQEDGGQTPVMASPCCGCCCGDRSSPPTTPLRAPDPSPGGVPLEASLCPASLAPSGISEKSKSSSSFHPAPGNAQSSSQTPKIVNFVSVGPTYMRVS

B1: IL4R-BA030-IgG4 (antibody, V domains shown)
VH: QVQLVESGGGVVQPGRSLRLSCAASGFTFSSYAIHWVRQAPGKGLEWVAVISYDGSKKYYADSVKGRFTISRDNSKNTLYLQMNSLRAEDTAVYYCAREYYYGMDVWGQGTTVTVSS
VL: DIVMTQSPSTLSASVGDRVTITCRASQSISNWLAWYQQKPGKAPKRLIYKASSLESGVPSRFSGSGSGTEFTLTISSLQPDDFATYYCQQYNRYFTFGQGTKLEIKR
notes: also called IL4RQ14-BA030
B2: IL4R-BA173-IgG4 (antibody, V domains shown)
VH: QVQLVESGGGVVQPGRSLRLSCAASGFTFSSYAMHWVRQAPGKGLEWVAVISYDGSNKYYADSVKGRFTISRDNSKNTLYLQMNSLRAEDTAVYYCARGLTTVRGVLYWGQGTLVTVSS
VL: DIVMTQSPSTLSASVGDRVTITCRASQSISTRLAWYQQKPGKAPKLLVYWASSLESGVPSRFSGSGSGTEFTLAISSLQPDDFGTYYCQQYTSYSWTFGQGTKLEIKR
notes: also called IL4RQ6-BA173
B3: IL4R-BA167-IgG4 (antibody, V domains shown)
VH: B2 VH
VL: EIVMTQSPSSLSASLGDRVTITCRASQNIGSRLAWYQQKPGKAPKLLIYKASSLESGVPSRFSGSGSGTEFTLTISSLQPDDFATYYCQQYNSYSWTFGQGTKLEIKR
notes: also called IL4RQ6-BA167
B4: BA420 (antibody, IgG4, V domains shown)
VH: QVQLVESGGGAVQPGRSLRVSCAASGFTFSSHGMDWVRQVPGKGLEWVAVISYDGKKKYYADSVKGRFTISRDNSKNTLYLQMNSLRAEDTAIYYCVKESRYYYGMDVWGQGTTVTVSS
VL: DIVMTQSPSTLSASVGDRVTITCRASPSISSWLAWYQQKPGKAPKVLIYKSSRLESGVPSRFSGNGSGTEFTLTISSLQPDDFATYYCQQYNGYSWTFGQGTKVEIKR
notes: also called IL4RQ24-BA420
B5: BA034 (antibody, IgG4, V domains shown)
VH: B4 VH with G8R
VL: B4 VL with V3Q, P27Q, I29F, S30N, V46L, N65S
notes: also called IL4RQ14-BA034
B6: BA1301 (antibody, IgG4, V domains shown)
VH: QVQLVESGGGVVQPGRSLRLSCAASGLTFSSYAMHWVRQAPGKGLEWVAVISYDGSNKYYADSVKGRFTISRDNSKNTLYLQMNSLRAEDTAVYYCARGFGYFDLWGRGTLVTVSS
VL: DIQMTQSPSTLSASVGDRVTITCRASQSITRRLAWYQQKPGKAPKLLIYKASSLESGVPSRFSGSGSGTEFTLTISSLQPDDFATYYCQQYVSFSRTFGQGTKVEIKR
notes: also called IL4RQ29-BA1301
B7: Dupilumab (antibody, human IgG4 S228P, kappa, V domains shown)
VH: EVQLVESGGGLEQPGGSLRLSCAGSGFTFRDYAMTWVRQAPGKGLEWVSSISGSGGNTYYADSVKGRFTISRDNSKNTLYLQMNSLRAEDTAVYYCAKDRLSITIRPRYYGLDVWGQGTTVTVSS
VL: DIVMTQSPLSLPVTPGEPASISCRSSQSLLYSIGYNYLDWYLQKSGQSPQLLIYLGSNRASGVPDRFSGSGSGTDFTLKISRVEAEDVGFYYCMQALQTPYTFGQGTKLEIKR

Residue numbers refer to the chain shown, from its start.

One experiment concerns the target T1, IL4R-Fc-biotin. Description: competition ELISA: IL4 coated, IL4R-Fc-biotin (0.4 µg/ml) pre-incubated with antibody dilutions. The procedure:
IL4 (11846-HANE, Sinobiological Co., Ltd.) was coated at the concentration of 0.2 μg/ml in 100 μL/well at 4° C. overnight; 3% skimmed milk powder was used for blocking 1 h; at the same time, IL4R-Fc-biotin (0.4 μg/ml) and candidate antibody at different concentrations (30 μg/mL, 7.5 μg/mL, 1.875 μg/mL, […], 0.1171875 μg/mL and 0 μg/mL) were co-incubated at 37° C. for 1 h, then added to the blocked ELISA plate and co-incubated at 37° C. for another 1 h; then […]/HRP (R&D, Cat. No.: 890803) was added, and incubated at 37° C. for 1 h; color development was stopped, after 10 min color development, with the addition of 50 μL of 2M H₂SO₄ to each well. OD450 was measured with a microplate reader.
In the case of B1, the half-maximal inhibitory concentration (IC50) came to 0.346 µg/mL.

With B2, the IC50 is 0.367 µg/mL.

Molecule B3 gave a concentration for half-maximal inhibition (IC50) of 0.477 µg/mL.

In the next experiment the target is T1, IL4R-Fc-biotin. Description: competition ELISA: IL13RA1 coated, IL4R-Fc-biotin (0.24 µg/ml) and IL13 (1 µg/ml) pre-incubated with antibody dilutions. The protocol:
IL13RA1 (10943-H08H, Sinobiological Co., Ltd.) was coated at the concentration of 0.8 μg/ml in 100 μL/well at 4° C. overnight; 3% skimmed milk powder was used for blocking 1 h; at the same time, IL4R-Fc-biotin (0.24 μg/ml) and IL13 (1 μg/ml, 10369-HANE, Sinobiological Co., Ltd.) and candidate antibody at different concentrations (30 μg/mL, 7.5 μg/mL, 1.875 μg/mL, 0.46875 μg/mL, 0.1171875 μg/mL and 0 μg/mL) were co-incubated at 37° C. for 1 h, then added to the blocked ELISA plate and co-incubated at 37° C. for another 1 h; after washing three times with PBST, […]/HRP (R&D, Cat. No.: 890803) was added, and incubated at 37° C. for 1 h; and after washing four times with PBST, TMB was used for color development for 10 min. 50 μL of 2M H₂SO₄ was added to each well to stop color development. OD450 was measured with a microplate reader.
Background: In an ELISA, binding on a coated surface is turned into a signal by an enzyme label.
For the molecule B1, the IC50 is 0.381 µg/mL.

B2 displayed an IC50 of 0.302 µg/mL.

Regarding B3, the half-inhibitory concentration (IC50) came to 0.407 µg/mL.

For a further experiment, the target named is T1, IL4R-Fc-biotin. Description: competition ELISA: IL4 coated, IL4R-Fc-biotin (0.4 µg/ml) with antibody dilutions. The procedure:
IL4 (11846-HANE, Sinobiological Co., Ltd.) was coated at the concentration of 0.2 μg/ml in 100 μL/well at 4° C. overnight; 3% skimmed milk powder was used for blocking 1 h; at the same time, 50 μL of IL4R-Fc-biotin (0.4 μg/ml) and 50 μL of candidate antibody at different concentrations (16 μg/mL, 4 μg/mL, 1 μg/mL, 0.25 μg/mL, 0.0625 μg/mL, 0.015625 μg/mL, and 0.00390625 μg/mL), 100 μL in total, were added to the blocked ELISA plate and co-incubated at 37° C. for 1 h; after washing three times with PBST, […]/HRP (R&D, Cat. No.: 890803) was added, and incubated at 37° C. for 1 h; and 100 μL of TMB color developing solution (Beijing Meike Wande Co., Ltd., Cat. No.: 1001) was added to each well. Color development was stopped, after 10 min color development, with the addition of 50 μL of 2 M concentrated sulfuric acid, and OD450 was measured with a microplate reader.
B1 gave an IC50 of 0.343 µg/mL.

Regarding B4, the IC50 is 0.334 µg/mL.

For B5, the 50% inhibitory concentration (IC50) came to 0.71 µg/mL.

The molecule B6 registered a 50% inhibitory concentration (IC50) of 0.592 µg/mL.

As to B2, the IC50 turned out to be 0.354 µg/mL.

On to B3, for which the IC50 was 0.458 µg/mL.

The target of another experiment is T2, human IL4R (10402-H08H, Sinobiological …). Description: ELISA: IL4R coated at graded concentrations (0.4-0 µg/ml), antibody fixed at 2 µg/ml. The procedure:
CBS coating solution (pH 9.6 carbonic acid solution) was used to coat protein IL4R (10402-H08H, Sinobiological Co., Ltd.) at different concentrations (0.4 μg/ml, 0.2 μg/ml, 0.1 μg/ml, 0.05 μg/ml, 0.025 μg/ml, 0.0125 μg/ml, 0.00625 μg/ml and 0 μg/ml) in 100 μL/well at 4° C. overnight; 3% skimmed milk powder was used for blocking 1 h at 37° C.; 100 μL of candidate antibody at 2 μg/ml was added to each well and incubated at 37° C. for 1 h; and then goat anti-human IgG (H+L)/HRP (KPL, Cat. No.: 474-1006) was added, and incubated at 37° C. for 1 h. Color development was stopped, after 10 min color development, with the addition of 50 μL of 2 M H₂SO₄ to each well, and OD450 was measured with a microplate reader. Compared with the control antibody, 3 antibodies had close binding sensitivity to IL4R protein.
Consider B1, for which the concentration for a half-maximal effect (EC50) worked out at 0.031 µg/mL.

The molecule B2 registered an EC50 of 0.025 µg/mL.

B3: the response was half-maximal at 0.045 µg/mL (EC50).

A further experiment concerns the target T3, receptors of IL4/IL13 on TF-1 cells and …. Description: cell-based or functional assay.
As to B1, the “IC50 (IL4, ng/mL), PBMC, inhibition of IL4-promoted proliferation” value (“IC50 (IL4, ng/mL), PBMC, inhibition” for short) stood at 8.09 ng/mL; the “IC50 (IL4, ng/mL), TF-1 Cells, inhibition of IL4-induced proliferation” value (“IC50 … inhibition of IL4-induced proliferation” for short) amounted to 227 ng/mL; the “IC50 (IL13, ng/mL), TF-1 Cells, inhibition of IL13-induced proliferation” value (from here on “IC50 … inhibition of IL13-induced proliferation”) is 9 ng/mL.

Regarding B7, the “IC50 (IL4, ng/mL), PBMC, inhibition” value was found to be 2.87 ng/mL; the “IC50 … inhibition of IL4-induced proliferation” value is 65 ng/mL; the “IC50 … inhibition of IL13-induced proliferation” value turned out to be 9 ng/mL.

As for B2, the “IC50 (IL4, ng/mL), PBMC, inhibition” value came to 1.02 ng/mL; the “IC50 … inhibition of IL4-induced proliferation” value was 66 ng/mL; the “IC50 … inhibition of IL13-induced proliferation” value came to 6 ng/mL.

Take B3: the “IC50 (IL4, ng/mL), PBMC, inhibition” value is 1.52 ng/mL; the “IC50 … inhibition of IL4-induced proliferation” value stood at 139 ng/mL; the “IC50 … inhibition of IL13-induced proliferation” value was 5 ng/mL.

One may read the IC50 as the point on the concentration scale where inhibition reaches its midpoint. One may read the EC50 as the concentration at which the effect is half-maximal. A low value points to an effect from little substance.
